{"source": "patent US20080175878", "key": {"[1]": {"biological_target": "blood clotting factor V, P12259", "sequence (P12259 29-2224)": "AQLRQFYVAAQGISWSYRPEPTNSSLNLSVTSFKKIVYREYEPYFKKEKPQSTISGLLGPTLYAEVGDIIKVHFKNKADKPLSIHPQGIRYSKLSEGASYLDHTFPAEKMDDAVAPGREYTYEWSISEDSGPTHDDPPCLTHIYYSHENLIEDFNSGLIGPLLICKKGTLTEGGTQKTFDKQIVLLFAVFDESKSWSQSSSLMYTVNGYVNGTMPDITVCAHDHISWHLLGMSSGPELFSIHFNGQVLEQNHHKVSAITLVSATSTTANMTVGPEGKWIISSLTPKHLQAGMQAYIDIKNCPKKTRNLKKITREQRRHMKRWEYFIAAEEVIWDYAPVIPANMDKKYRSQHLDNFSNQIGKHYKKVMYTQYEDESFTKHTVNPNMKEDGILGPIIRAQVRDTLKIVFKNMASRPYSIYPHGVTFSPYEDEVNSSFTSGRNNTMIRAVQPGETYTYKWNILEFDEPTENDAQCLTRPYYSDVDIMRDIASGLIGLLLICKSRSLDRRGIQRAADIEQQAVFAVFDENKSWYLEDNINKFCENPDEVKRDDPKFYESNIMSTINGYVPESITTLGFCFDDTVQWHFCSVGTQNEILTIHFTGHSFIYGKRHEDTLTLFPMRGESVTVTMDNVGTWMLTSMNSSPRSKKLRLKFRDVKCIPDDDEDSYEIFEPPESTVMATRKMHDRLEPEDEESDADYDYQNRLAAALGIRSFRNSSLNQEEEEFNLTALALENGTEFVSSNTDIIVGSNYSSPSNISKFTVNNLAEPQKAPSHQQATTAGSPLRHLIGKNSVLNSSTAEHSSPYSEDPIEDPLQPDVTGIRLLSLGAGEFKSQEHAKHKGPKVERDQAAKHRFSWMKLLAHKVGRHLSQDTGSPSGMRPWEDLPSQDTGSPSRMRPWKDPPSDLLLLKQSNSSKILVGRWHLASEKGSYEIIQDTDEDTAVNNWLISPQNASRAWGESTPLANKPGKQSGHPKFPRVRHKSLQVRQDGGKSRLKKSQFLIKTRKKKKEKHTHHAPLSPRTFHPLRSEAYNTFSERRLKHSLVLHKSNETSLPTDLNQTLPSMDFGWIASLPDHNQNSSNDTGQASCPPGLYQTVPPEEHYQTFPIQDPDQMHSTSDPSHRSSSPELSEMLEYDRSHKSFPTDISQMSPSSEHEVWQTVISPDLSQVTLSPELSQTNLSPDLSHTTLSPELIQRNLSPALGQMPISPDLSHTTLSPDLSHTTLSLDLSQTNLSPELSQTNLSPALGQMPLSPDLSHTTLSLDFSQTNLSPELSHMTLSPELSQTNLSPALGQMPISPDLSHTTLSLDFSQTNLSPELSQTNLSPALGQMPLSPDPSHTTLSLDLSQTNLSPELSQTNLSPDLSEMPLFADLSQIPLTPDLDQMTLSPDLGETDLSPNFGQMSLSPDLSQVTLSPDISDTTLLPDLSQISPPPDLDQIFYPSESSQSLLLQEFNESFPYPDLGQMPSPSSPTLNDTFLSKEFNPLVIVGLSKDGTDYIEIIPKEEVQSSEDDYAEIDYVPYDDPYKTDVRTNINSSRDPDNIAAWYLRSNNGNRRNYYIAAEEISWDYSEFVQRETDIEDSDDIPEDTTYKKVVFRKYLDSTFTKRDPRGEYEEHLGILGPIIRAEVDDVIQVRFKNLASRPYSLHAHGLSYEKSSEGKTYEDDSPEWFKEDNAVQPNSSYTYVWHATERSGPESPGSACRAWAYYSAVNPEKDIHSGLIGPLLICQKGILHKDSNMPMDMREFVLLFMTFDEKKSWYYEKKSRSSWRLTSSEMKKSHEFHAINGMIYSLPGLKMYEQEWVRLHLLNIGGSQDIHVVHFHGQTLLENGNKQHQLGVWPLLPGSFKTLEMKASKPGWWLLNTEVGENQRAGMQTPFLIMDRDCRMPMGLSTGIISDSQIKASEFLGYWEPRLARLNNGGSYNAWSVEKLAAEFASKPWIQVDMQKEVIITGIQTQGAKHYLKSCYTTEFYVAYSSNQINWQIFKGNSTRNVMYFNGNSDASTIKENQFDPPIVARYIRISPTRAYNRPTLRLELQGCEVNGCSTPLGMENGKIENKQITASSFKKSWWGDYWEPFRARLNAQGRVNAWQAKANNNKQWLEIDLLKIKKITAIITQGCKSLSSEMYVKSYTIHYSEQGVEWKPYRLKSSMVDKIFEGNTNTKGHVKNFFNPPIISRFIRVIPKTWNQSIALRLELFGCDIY"}, "[2]": {"biological_target": "T1, blood clotting factor VII, P08709", "T1 chain": "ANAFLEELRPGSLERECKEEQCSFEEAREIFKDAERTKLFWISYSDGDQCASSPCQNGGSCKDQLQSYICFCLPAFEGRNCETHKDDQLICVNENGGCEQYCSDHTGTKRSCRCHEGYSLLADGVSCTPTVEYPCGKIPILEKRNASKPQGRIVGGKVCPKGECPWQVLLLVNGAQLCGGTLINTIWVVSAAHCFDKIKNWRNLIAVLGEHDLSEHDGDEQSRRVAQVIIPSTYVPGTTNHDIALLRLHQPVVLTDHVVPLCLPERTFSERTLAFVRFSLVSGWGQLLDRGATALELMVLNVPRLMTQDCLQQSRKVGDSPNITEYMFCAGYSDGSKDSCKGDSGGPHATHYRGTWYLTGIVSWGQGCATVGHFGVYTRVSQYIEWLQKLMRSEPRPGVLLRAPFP"}, "[3]": {"biological_target": "blood clotting factor VIII, P00451", "sequence (P00451 whole entry, looked up)": "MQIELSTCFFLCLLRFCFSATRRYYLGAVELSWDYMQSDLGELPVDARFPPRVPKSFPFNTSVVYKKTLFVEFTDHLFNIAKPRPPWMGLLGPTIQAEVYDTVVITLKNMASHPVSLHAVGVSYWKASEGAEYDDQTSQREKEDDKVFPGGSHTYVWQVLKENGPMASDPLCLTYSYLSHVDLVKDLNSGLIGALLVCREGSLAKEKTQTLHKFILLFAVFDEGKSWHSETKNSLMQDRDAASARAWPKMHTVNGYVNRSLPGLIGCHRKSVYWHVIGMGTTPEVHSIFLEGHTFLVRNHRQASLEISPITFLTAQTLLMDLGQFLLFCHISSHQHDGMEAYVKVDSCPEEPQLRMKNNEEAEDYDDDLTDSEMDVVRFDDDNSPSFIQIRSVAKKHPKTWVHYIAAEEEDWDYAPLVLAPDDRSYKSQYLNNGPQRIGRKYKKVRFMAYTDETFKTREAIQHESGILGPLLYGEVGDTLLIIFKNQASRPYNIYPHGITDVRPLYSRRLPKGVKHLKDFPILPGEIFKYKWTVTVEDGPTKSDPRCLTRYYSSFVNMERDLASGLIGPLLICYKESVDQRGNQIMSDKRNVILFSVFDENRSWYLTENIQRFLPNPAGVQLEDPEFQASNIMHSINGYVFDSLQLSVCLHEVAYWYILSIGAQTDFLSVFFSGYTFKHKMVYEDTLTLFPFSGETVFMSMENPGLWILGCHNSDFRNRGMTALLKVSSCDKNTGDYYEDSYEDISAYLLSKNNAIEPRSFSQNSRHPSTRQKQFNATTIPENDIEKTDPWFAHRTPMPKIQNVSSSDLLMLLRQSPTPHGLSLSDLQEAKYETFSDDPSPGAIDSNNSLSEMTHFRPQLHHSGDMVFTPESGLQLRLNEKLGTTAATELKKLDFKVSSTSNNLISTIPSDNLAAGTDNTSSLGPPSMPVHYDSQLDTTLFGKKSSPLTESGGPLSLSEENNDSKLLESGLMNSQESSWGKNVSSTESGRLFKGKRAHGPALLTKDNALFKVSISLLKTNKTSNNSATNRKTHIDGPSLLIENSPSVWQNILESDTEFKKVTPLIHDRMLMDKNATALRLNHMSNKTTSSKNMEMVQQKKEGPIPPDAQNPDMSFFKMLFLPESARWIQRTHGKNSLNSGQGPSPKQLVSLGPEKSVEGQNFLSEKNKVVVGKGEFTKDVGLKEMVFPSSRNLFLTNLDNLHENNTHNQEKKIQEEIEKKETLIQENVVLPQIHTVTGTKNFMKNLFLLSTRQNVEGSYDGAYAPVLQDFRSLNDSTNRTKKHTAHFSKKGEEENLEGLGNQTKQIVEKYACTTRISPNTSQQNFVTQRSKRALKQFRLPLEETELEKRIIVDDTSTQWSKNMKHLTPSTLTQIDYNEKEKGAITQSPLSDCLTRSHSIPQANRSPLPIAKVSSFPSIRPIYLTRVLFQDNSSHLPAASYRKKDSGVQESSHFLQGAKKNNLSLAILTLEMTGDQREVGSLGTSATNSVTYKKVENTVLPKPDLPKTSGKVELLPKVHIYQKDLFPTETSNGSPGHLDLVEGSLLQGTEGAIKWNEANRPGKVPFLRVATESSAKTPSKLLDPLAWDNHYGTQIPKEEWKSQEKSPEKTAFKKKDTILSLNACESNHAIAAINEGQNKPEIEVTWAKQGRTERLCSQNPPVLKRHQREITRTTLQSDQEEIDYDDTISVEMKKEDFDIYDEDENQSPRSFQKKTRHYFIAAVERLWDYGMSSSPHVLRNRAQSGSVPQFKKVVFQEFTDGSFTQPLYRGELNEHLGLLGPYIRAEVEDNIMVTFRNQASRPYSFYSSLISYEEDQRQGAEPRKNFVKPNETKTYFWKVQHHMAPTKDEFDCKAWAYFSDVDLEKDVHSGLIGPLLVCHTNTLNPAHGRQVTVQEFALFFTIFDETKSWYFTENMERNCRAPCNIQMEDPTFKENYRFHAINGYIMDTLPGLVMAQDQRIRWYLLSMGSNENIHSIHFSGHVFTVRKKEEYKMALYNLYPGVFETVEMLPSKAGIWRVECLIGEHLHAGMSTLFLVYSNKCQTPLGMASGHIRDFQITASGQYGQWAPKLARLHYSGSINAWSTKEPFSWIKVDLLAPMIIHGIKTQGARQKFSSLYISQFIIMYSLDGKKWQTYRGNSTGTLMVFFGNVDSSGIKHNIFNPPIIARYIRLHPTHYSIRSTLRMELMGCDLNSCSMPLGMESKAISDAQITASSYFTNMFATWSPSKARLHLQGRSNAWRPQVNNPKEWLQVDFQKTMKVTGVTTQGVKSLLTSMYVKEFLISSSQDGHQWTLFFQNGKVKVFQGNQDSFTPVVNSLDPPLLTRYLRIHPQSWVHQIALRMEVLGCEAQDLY"}, "[4]": {"biological_target": "single chain tissue plasminogen activator, P00750", "sequence (P00750 36-562)": "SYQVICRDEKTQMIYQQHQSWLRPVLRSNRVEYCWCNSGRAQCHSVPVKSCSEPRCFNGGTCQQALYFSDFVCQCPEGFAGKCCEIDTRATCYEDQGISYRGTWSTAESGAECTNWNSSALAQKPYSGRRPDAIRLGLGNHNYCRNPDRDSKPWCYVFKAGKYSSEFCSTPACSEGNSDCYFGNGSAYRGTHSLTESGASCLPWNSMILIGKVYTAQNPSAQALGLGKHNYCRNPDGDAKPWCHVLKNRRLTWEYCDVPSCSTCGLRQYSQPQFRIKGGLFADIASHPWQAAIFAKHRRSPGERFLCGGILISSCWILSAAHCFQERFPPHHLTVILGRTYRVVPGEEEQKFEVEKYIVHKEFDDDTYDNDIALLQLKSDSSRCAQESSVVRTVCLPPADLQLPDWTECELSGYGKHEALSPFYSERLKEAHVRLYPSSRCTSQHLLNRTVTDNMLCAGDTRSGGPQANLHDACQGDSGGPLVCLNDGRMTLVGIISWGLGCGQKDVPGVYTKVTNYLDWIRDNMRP"}, "[5]": {"biological_target": "single chain urokinase plasminogen activator, P00749"}}}
{"protein": "protease for activating the blood clotting factor VII (protein) chain 1: LLESLDPDWTPDQYDYSYEDYNQEENTSSTLTHAENPDWYYTEDQADPCQPNPCEHGGDCLVHGSTFTCSCLAPFSGNKCQKVQNTCKDNPCGRGQCLITQSPPYYRCVCKHPYTGPSCSQVVPVCRPNPCQNGATCSRHKRRSKFTCACPDQFKGKFCEIGSDDCYVGDGYSYRGKMNRTVNQHACLYWNSHLLLQENYNMFMEDAETHGIGEHNFCRNPDADEKPWCFIKVTNDKVKWEYCDVSACSAQDVAYPEESPTEPSTKLPGFDSCGKTEIAERKIKR chain 2: not shown", "values": [{"measurement": "Residual FV activity, protease 10 µg/ml, incubation 20 min", "setting": "[1]", "result": 100}, {"measurement": "Residual FV activity, protease 10 µg/ml, incubation column headed 0 (min)", "setting": "[1]", "result": 93}, {"measurement": "Residual FV activity, protease 10 µg/ml, incubation column headed 0 (min), second column", "setting": "[1]", "result": 91}, {"measurement": "Residual FV activity, protease 30 µg/ml, incubation 20 min", "setting": "[1]", "result": 28}, {"measurement": "Residual FV activity, protease 30 µg/ml, incubation column headed 0 (min)", "setting": "[1]", "result": 100}, {"measurement": "Residual FV activity, protease 30 µg/ml, incubation column headed 0 (min), second column", "setting": "[1]", "result": 93}, {"measurement": "Residual FV activity, protease 100 µg/ml, incubation 20 min", "setting": "[1]", "result": 13}, {"measurement": "Residual FV activity, protease 100 µg/ml, incubation column headed 0 (min)", "setting": "[1]", "result": 100}, {"measurement": "Residual FV activity, protease 100 µg/ml, incubation column headed 0 (min), second column", "setting": "[1]", "result": 29}, {"measurement": "FVII activation factor (x control), protease solution diluted 1:5, 5 min at RT (x times control)", "setting": "[2]", "result": 2.6}, {"measurement": "FVII activation factor (x control), protease solution diluted 1:10, 5 min at RT (x times control)", "setting": "[2]", "result": 2}, {"measurement": "FVII activation factor (x control), protease solution diluted 1:20, 5 min at RT (x times control)", "setting": "[2]", "result": 1.6}, {"measurement": "FVII activation factor, 0.2 IU FVII/ml + 1:10 protease solution, incubation 0 min (x times control)", "setting": "[2]", "result": 1}, {"measurement": "FVII activation factor, 0.2 IU FVII/ml + 1:10 protease solution, incubation 2.5 min (x times control)", "setting": "[2]", "result": 1.3}, {"measurement": "FVII activation factor, 0.2 IU FVII/ml + 1:10 protease solution, incubation 5.0 min (x times control)", "setting": "[2]", "result": 2}, {"measurement": "FVII activation factor, 0.2 IU FVII/ml + 1:10 protease solution, incubation 10.0 min (x times control)", "setting": "[2]", "result": 2.8}, {"measurement": "FVII activation factor, 0.2 IU FVII/ml + 1:10 protease solution, incubation 40.0 min (x times control)", "setting": "[2]", "result": "< 3.8"}, {"measurement": "FVIIa content (Staclot FVIIa-rTF test) after protease + FVII, 10 min, then aprotinin", "setting": "[2]", "result": "18 mlU of FVIIa/ml"}, {"measurement": "FVIIa formed by the action of the protease, after subtracting the base value", "setting": "[2]", "result": "8 mlU of FVIIa/ml have therefore been formed by the action of the protease"}, {"measurement": "FVIII activity (% of control without protease), FVIII essentially free of vWF, protease 10 µg/ml, CaCl2, 0 min", "setting": "[3]", "result": 97, "unit": "%"}, {"measurement": "FVIII activity (% of control without protease), FVIII essentially free of vWF, protease 10 µg/ml, CaCl2, 5 min", "setting": "[3]", "result": 27, "unit": "%"}, {"measurement": "FVIII activity (% of control without protease), FVIII essentially free of vWF, protease 10 µg/ml, CaCl2, 10 min", "setting": "[3]", "result": 11, "unit": "%"}, {"measurement": "FVIII activity (% of control without protease), FVIII essentially free of vWF, protease 10 µg/ml, CaCl2, 20 min", "setting": "[3]", "result": "< 1", "unit": "%"}, {"measurement": "FVIII activity (% of control without protease), FVIII solution containing vWF, protease 10 µg/ml, CaCl2, 0 min", "setting": "[3]", "result": 98, "unit": "%"}, {"measurement": "FVIII activity (% of control without protease), FVIII solution containing vWF, protease 10 µg/ml, CaCl2, 5 min", "setting": "[3]", "result": 16, "unit": "%"}, {"measurement": "FVIII activity (% of control without protease), FVIII solution containing vWF, protease 10 µg/ml, CaCl2, 10 min", "setting": "[3]", "result": 14, "unit": "%"}, {"measurement": "FVIII activity (% of control without protease), FVIII solution containing vWF, protease 10 µg/ml, CaCl2, 20 min", "setting": "[3]", "result": 1, "unit": "%"}, {"measurement": "residual active FVIII (chromogenic FVIII test), 10 min, protease 0.1, 1 and 10 µg/ml", "setting": "[3]", "result": "As the protease concentration increased, correspondingly more FVIII was inactivated"}, {"measurement": "residual active FVIII (chromogenic FVIII test), protease 10 µg/ml, incubation time varied", "setting": "[3]", "result": "A marked reduction in the residual concentration of active FVIII was seen as the length of incubation increased"}, {"measurement": "share of FVIII spared from the protease at calcium below 0.5 mM", "setting": "[3]", "result": "the percentage spared is more than 60%"}, {"measurement": "share of FVIII spared from the protease at calcium below 1 mM", "setting": "[3]", "result": "approx. 50% of the FVIII is then spared"}, {"measurement": "PA activity (S-2444), 20 min at 37° C., heparin 100 IU/ml, FVII activator 50 µg/ml", "setting": "[4]", "result": "33.6 Δ mIU/min"}, {"measurement": "PA activity (S-2444), 20 min at 37° C., heparin 100 IU/ml, FVII activator 100 µg/ml", "setting": "[4]", "result": "51 Δ mIU/min"}, {"measurement": "PA activity (S-2444), 20 min at 37° C., heparin 100 IU/ml, FVII activator 200 µg/ml", "setting": "[4]", "result": "71.9 Δ mIU/min"}, {"measurement": "PA activity (S-2444), 20 min at 37° C., stimulant: CaCl2", "setting": "[4]", "result": "25.3 Δ mIU/min"}, {"measurement": "PA activity (S-2444), 20 min at 37° C., stimulant: heparin", "setting": "[4]", "result": "63.8 Δ mIU/min"}, {"measurement": "PA activity (S-2444), 20 min at 37° C., stimulant: none", "setting": "[4]", "result": "5.9 Δ mIU/min"}, {"measurement": "Resulting PA activity (S-2444), sctPA 100 µg/ml, incubation 1 min (FVII activator concentration not given)", "setting": "[4]", "result": "10.2 Δ mIU/min"}, {"measurement": "Resulting PA activity (S-2444), sctPA 100 µg/ml, incubation 2 min (FVII activator concentration not given)", "setting": "[4]", "result": "16.8 Δ mIU/min"}, {"measurement": "Resulting PA activity (S-2444), sctPA 100 µg/ml, incubation 5 min (FVII activator concentration not given)", "setting": "[4]", "result": "38.8 Δ mIU/min"}, {"measurement": "Resulting PA activity (S-2444), sctPA 100 µg/ml, incubation 10 min (FVII activator concentration not given)", "setting": "[4]", "result": "60.2 Δ mIU/min"}, {"measurement": "Resulting PA activity (S-2444), sctPA 100 µg/ml, incubation 20 min (FVII activator concentration not given)", "setting": "[4]", "result": "73.3 Δ mIU/min"}, {"measurement": "Resulting PA activity (S-2444), no stimulant, 2 min, FVII activator 2 µg/ml", "setting": "[5]", "result": "25 Δ mIU/min"}, {"measurement": "Resulting PA activity (S-2444), no stimulant, 2 min, FVII activator 5 µg/ml", "setting": "[5]", "result": "60 Δ mIU/min"}, {"measurement": "Resulting PA activity (S-2444), no stimulant, 2 min, FVII activator 10 µg/ml", "setting": "[5]", "result": "117 Δ mIU/min"}, {"measurement": "Resulting PA activity (S-2444), no stimulant, 5 min, FVII activator 2 µg/ml", "setting": "[5]", "result": "79 Δ mIU/min"}, {"measurement": "Resulting PA activity (S-2444), no stimulant, 5 min, FVII activator 5 µg/ml", "setting": "[5]", "result": "179 Δ mIU/min"}, {"measurement": "Resulting PA activity (S-2444), no stimulant, 5 min, FVII activator 10 µg/ml", "setting": "[5]", "result": "165 Δ mIU/min"}, {"measurement": "Resulting PA activity (S-2444), no stimulant, 10 min, FVII activator 2 µg/ml", "setting": "[5]", "result": "186 Δ mIU/min"}, {"measurement": "Resulting PA activity (S-2444), no stimulant, 10 min, FVII activator 5 µg/ml", "setting": "[5]", "result": "449 Δ mIU/min"}, {"measurement": "Resulting PA activity (S-2444), no stimulant, 10 min, FVII activator 10 µg/ml", "setting": "[5]", "result": "517 Δ mIU/min"}, {"measurement": "Resulting PA activity (S-2444), stimulant CaCl2, 2 min, FVII activator 2 µg/ml", "setting": "[5]", "result": "255 Δ mIU/min"}, {"measurement": "Resulting PA activity (S-2444), stimulant CaCl2, 2 min, FVII activator 5 µg/ml", "setting": "[5]", "result": "370 Δ mIU/min"}, {"measurement": "Resulting PA activity (S-2444), stimulant CaCl2, 2 min, FVII activator 10 µg/ml", "setting": "[5]", "result": "401 Δ mIU/min"}, {"measurement": "Resulting PA activity (S-2444), stimulant CaCl2, 5 min, FVII activator 2 µg/ml", "setting": "[5]", "result": "338 Δ mIU/min"}, {"measurement": "Resulting PA activity (S-2444), stimulant CaCl2, 5 min, FVII activator 5 µg/ml", "setting": "[5]", "result": "424 Δ mIU/min"}, {"measurement": "Resulting PA activity (S-2444), stimulant CaCl2, 5 min, FVII activator 10 µg/ml", "setting": "[5]", "result": "438 Δ mIU/min"}, {"measurement": "Resulting PA activity (S-2444), stimulant CaCl2, 10 min, FVII activator 2 µg/ml", "setting": "[5]", "result": "416 Δ mIU/min"}, {"measurement": "Resulting PA activity (S-2444), stimulant CaCl2, 10 min, FVII activator 5 µg/ml", "setting": "[5]", "result": "445 Δ mIU/min"}, {"measurement": "Resulting PA activity (S-2444), stimulant CaCl2, 10 min, FVII activator 10 µg/ml", "setting": "[5]", "result": "448 Δ mIU/min"}, {"measurement": "Resulting PA activity (S-2444), stimulant heparin, 2 min, FVII activator 2 µg/ml", "setting": "[5]", "result": "190 Δ mIU/min"}, {"measurement": "Resulting PA activity (S-2444), stimulant heparin, 2 min, FVII activator 5 µg/ml", "setting": "[5]", "result": "332 Δ mIU/min"}, {"measurement": "Resulting PA activity (S-2444), stimulant heparin, 2 min, FVII activator 10 µg/ml", "setting": "[5]", "result": "425 Δ mIU/min"}, {"measurement": "Resulting PA activity (S-2444), stimulant heparin, 5 min, FVII activator 2 µg/ml", "setting": "[5]", "result": "330 Δ mIU/min"}, {"measurement": "Resulting PA activity (S-2444), stimulant heparin, 5 min, FVII activator 5 µg/ml", "setting": "[5]", "result": "455 Δ mIU/min"}, {"measurement": "Resulting PA activity (S-2444), stimulant heparin, 5 min, FVII activator 10 µg/ml", "setting": "[5]", "result": "458 Δ mIU/min"}, {"measurement": "Resulting PA activity (S-2444), stimulant heparin, 10 min, FVII activator 2 µg/ml", "setting": "[5]", "result": "417 Δ mIU/min"}, {"measurement": "Resulting PA activity (S-2444), stimulant heparin, 10 min, FVII activator 5 µg/ml", "setting": "[5]", "result": "462 Δ mIU/min"}, {"measurement": "Resulting PA activity (S-2444), stimulant heparin, 10 min, FVII activator 10 µg/ml", "setting": "[5]", "result": "460 Δ mIU/min"}]}
